# According to patent publication US20230272119A1 (MARENGO THERAPEUTICS, published 2023):
# B1: α-IFN light-SmBiT (SEQ ID NO: 108) (other)
# light: EIVLTQSPGTLSLSPGERATLSCRASQSVSSSFFAWYQQKPGQAPRLLIYGASSRATGIPDRLSGSGSGTDFTLTITRLEPEDFAVYYCQQYDSSAITFGQGTRLEIKRTVAAPSVFIFPPSDEQLKSGTASVVCLLNNFYPREAKVQWKVDNALQSGNSQESVTEQDSKDSTYSLSSTLTLSKADYEKHKVYACEVTHQGLSSPVTKSFNRGECGSSGGGGSGGGGSSGGVTGYRLFEEIL
# notes: kappa light chain-linker-SmBiT; germline Vk3-20*01
# B2: α-CSF2 light-SmBiT (SEQ ID NO: 102) (other)
# light: EIVLTQSPATLSVSPGERATLSCRASQSVGTNVAWYQQKPGQAPRVLIYSTSSRATGITDRFSGSGSGTDFTLTISRLEPEDFAVYYCQQFNKSPLTFGGGTKVEIKRTVAAPSVFIFPPSDEQLKSGTASVVCLLNNFYPREAKVQWKVDNALQSGNSQESVTEQDSKDSTYSLSSTLTLSKADYEKHKVYACEVTHQGLSSPVTKSFNRGECGSSGGGGSGGGGSSGGVTGYRLFEEIL
# notes: kappa light chain-linker-SmBiT; germline Vk3D-20*01
# B3: α-IL6R light-SmBiT (SEQ ID NO: 126) (other)
# light: DIQMTQSPSSVSASVGDRVTITCRASQGISSWLAWYQQKPGKAPKLLIYGASSLESGVPSRFSGSGSGTDFTLTISSLQPEDFASYYCQQANSFPYTFGQGTKLEIKRTVAAPSVFIFPPSDEQLKSGTASVVCLLNNFYPREAKVQWKVDNALQSGNSQESVTEQDSKDSTYSLSSTLTLSKADYEKHKVYACEVTHQGLSSPVTKSFNRGECGSSGGGGSGGGGSSGGVTGYRLFEEIL
# notes: kappa light chain-linker-SmBiT; germline Vk1-12*01
# B4: α-IGF1R light-SmBiT (SEQ ID NO: 117) (other)
# light: DIQMTQSPSSLSASLGDRVTITCRASQGISSYLAWYQQKPGKAPKLLIYAKSTLQSGVPSRFSGSGSGTDFTLTISSLQPEDSATYYCQQYWTFPLTFGGGTKVEIKRTVAAPSVFIFPPSDEQLKSGTASVVCLLNNFYPREAKVQWKVDNALQSGNSQESVTEQDSKDSTYSLSSTLTLSKADYEKHKVYACEVTHQGLSSPVTKSFNRGECGSSGGGGSGGGGSSGGVTGYRLFEEIL
# notes: kappa light chain-linker-SmBiT; germline Vk1-27*01
# B5: α-IGF1R light-SmBiT (SEQ ID NO: 120) (other)
# light: EIVLTQSPGTLSVSPGERATLSCRASQSIGSSLHWYQQKPGQAPRLLIKYASQSLSGIPDRFSGSGSGTDFTLTISRLEPEDFAVYYCHQSSRLPHTFGQGTKVEIKRTVAAPSVFIFPPSDEQLKSGTASVVCLLNNFYPREAKVQWKVDNALQSGNSQESVTEQDSKDSTYSLSSTLTLSKADYEKHKVYACEVTHQGLSSPVTKSFNRGECGSSGGGGSGGGGSSGGVTGYRLFEEIL
# notes: as for B1
# What was measured:
# [1] = biological target: T1, α-IFN heavy-LgBiT (SEQ ID NO: 107); assay: NanoBiT, HC-LgBiT:LC-SmBiT:competing LC 1:1:1; competing lambda LC m48 (SEQ ID NO: 139)
# T1 construct: VH-CH1-linker-LgBiT; germline VH5-51*01
# [2] = biological target: T1, α-IFN heavy-LgBiT (SEQ ID NO: 107); assay: NanoBiT, HC-LgBiT:LC-SmBiT:competing LC 1:1:1; competing lambda LC m72 (SEQ ID NO: 163)
# [3] = biological target: T1, α-IFN heavy-LgBiT (SEQ ID NO: 107); assay: NanoBiT, HC-LgBiT:LC-SmBiT:competing LC 1:1:1; competing lambda LC m69 (SEQ ID NO: 160)
# [4] = biological target: T2, α-CSF2 heavy-LgBiT (SEQ ID NO: 101); assay: NanoBiT, HC-LgBiT:LC-SmBiT:competing LC 1:1:1; competing lambda LC m48 (SEQ ID NO: 139)
# T2 construct: VH-CH1-linker-LgBiT; germline VH1-3*01
# [5] = biological target: T2, α-CSF2 heavy-LgBiT (SEQ ID NO: 101); assay: NanoBiT, HC-LgBiT:LC-SmBiT:competing LC 1:1:1; competing lambda LC m66 (SEQ ID NO: 157)
# [6] = biological target: T2, α-CSF2 heavy-LgBiT (SEQ ID NO: 101); assay: NanoBiT, HC-LgBiT:LC-SmBiT:competing LC 1:1:1; competing lambda LC m72 (SEQ ID NO: 163)
# [7] = biological target: T2, α-CSF2 heavy-LgBiT (SEQ ID NO: 101); assay: NanoBiT, HC-LgBiT:LC-SmBiT:competing LC 1:1:1; competing lambda LC m69 (SEQ ID NO: 160)
# [8] = biological target: T3, α-IL6R heavy-LgBiT (SEQ ID NO: 125); assay: NanoBiT, HC-LgBiT:LC-SmBiT:competing LC 1:1:1; competing lambda LC m48 (SEQ ID NO: 139)
# T3 construct: VH-CH1-linker-LgBiT; germline VH3-9*01
# [9] = biological target: T3, α-IL6R heavy-LgBiT (SEQ ID NO: 125); assay: NanoBiT, HC-LgBiT:LC-SmBiT:competing LC 1:1:1; competing lambda LC m66 (SEQ ID NO: 157)
# [10] = biological target: T3, α-IL6R heavy-LgBiT (SEQ ID NO: 125); assay: NanoBiT, HC-LgBiT:LC-SmBiT:competing LC 1:1:1; competing lambda LC m54 (SEQ ID NO: 145)
# [11] = biological target: T3, α-IL6R heavy-LgBiT (SEQ ID NO: 125); assay: NanoBiT, HC-LgBiT:LC-SmBiT:competing LC 1:1:1; competing lambda LC m45 (SEQ ID NO: 136)
# [12] = biological target: T3, α-IL6R heavy-LgBiT (SEQ ID NO: 125); assay: NanoBiT, HC-LgBiT:LC-SmBiT:competing LC 1:1:1; competing lambda LC m63 (SEQ ID NO: 154)
# [13] = biological target: T4, α-IGF1R heavy-LgBiT (SEQ ID NO: 116); assay: NanoBiT, HC-LgBiT:LC-SmBiT:competing LC 1:1:1; competing lambda LC m60 (SEQ ID NO: 151)
# T4 construct: VH-CH1-linker-LgBiT; germline VH3-23*01
# [14] = biological target: T4, α-IGF1R heavy-LgBiT (SEQ ID NO: 116); assay: NanoBiT, HC-LgBiT:LC-SmBiT:competing LC 1:1:1; competing lambda LC m66 (SEQ ID NO: 157)
# [15] = biological target: T4, α-IGF1R heavy-LgBiT (SEQ ID NO: 116); assay: NanoBiT, HC-LgBiT:LC-SmBiT:competing LC 1:1:1; competing lambda LC m72 (SEQ ID NO: 163)
# [16] = biological target: T4, α-IGF1R heavy-LgBiT (SEQ ID NO: 116); assay: NanoBiT, HC-LgBiT:LC-SmBiT:competing LC 1:1:1; competing lambda LC m54 (SEQ ID NO: 145)
# [17] = biological target: T4, α-IGF1R heavy-LgBiT (SEQ ID NO: 116); assay: NanoBiT, HC-LgBiT:LC-SmBiT:competing LC 1:1:1; competing lambda LC m69 (SEQ ID NO: 160)
# [18] = biological target: T5, α-IGF1R heavy-LgBiT (SEQ ID NO: 119); assay: NanoBiT, HC-LgBiT:LC-SmBiT:competing LC 1:1:1; competing lambda LC m51 (SEQ ID NO: 142)
# T5 construct: VH-CH1-linker-LgBiT; germline VH3-21*01
# [19] = biological target: T5, α-IGF1R heavy-LgBiT (SEQ ID NO: 119); assay: NanoBiT, HC-LgBiT:LC-SmBiT:competing LC 1:1:1; competing lambda LC m72 (SEQ ID NO: 163)
# [20] = biological target: T5, α-IGF1R heavy-LgBiT (SEQ ID NO: 119); assay: NanoBiT, HC-LgBiT:LC-SmBiT:competing LC 1:1:1; competing lambda LC m63 (SEQ ID NO: 154)
# [21] = biological target: T5, α-IGF1R heavy-LgBiT (SEQ ID NO: 119); assay: NanoBiT, HC-LgBiT:LC-SmBiT:competing LC 1:1:1; competing lambda LC m69 (SEQ ID NO: 160)
binder,measurement,setting,value
B1,Percent pairing,[1],100%
same,Percent pairing,[2],100%
same,Percent pairing,[3],80%
B2,Percent pairing,[4],100%
same,Percent pairing,[5],93%
same,Percent pairing,[6],83%
same,Percent pairing,[7],98%
B3,Percent pairing,[8],99%
same,Percent pairing,[9],100%
same,Percent pairing,[10],100%
same,Percent pairing,[11],100%
same,Percent pairing,[12],84%
B4,Percent pairing,[13],81%
same,Percent pairing,[14],95%
same,Percent pairing,[15],96%
same,Percent pairing,[16],84%
same,Percent pairing,[17],100%
B5,Percent pairing,[18],95%
same,Percent pairing,[19],100%
same,Percent pairing,[20],99%
same,Percent pairing,[21],100%
